According to patent US20030092613A1, “Alpha7 nicotinic receptor peptides as ligands for beta amyloid peptides” (priority 2000, published 2003):

Molecular target: β-amyloid1-42 (UniProt P05067)
Test: cell-based or functional assay

ACh rel % Inh @ 100 µM [%]	Inh ACh rel IC50 [µM]	Substance
54	< 10	(Ac)FYEC (peptide)
62	< 10	(Ac)YECC-amide (peptide)
